System: K4 kissing-loop RNA reporter
Assay: apparent KD of K4 kissing-loop reporter; higher = weaker reporter binding
Settings: Eterna round: R107
Procedure: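 RNA-MaP round R107: designed RNA switches with theophylline, tryptophan, arginine or FMN aptamers are transcribed on-chip within common flanks. They are titrated with a labelled K4 kissing-loop RNA reporter in RNA-MaP buffer (100 mM Tris pH 7.5, 80 mM KCl, 4 mM MgCl2), without ligand or with the indicated ligand. Median apparent KD per design.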

[1] = input ligand: theophylline 20 uM
[2] = input ligand: tryptophan 2.4 mM
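Further: bound reporter read as fluorescence of individual clusters on recovered sequencing chips by microscopy, with normalized cluster intensities fitted with a binding model.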

Row | Sequence | apparent KD of K4 kissing-loop reporter (input ligand: FMN 200 uM) [nM] | apparent KD of K4 kissing-loop reporter (input ligand: arginine 13.2 mM) [nM] | apparent KD of K4 kissing-loop reporter (input ligand: none) [nM] | apparent KD of K4 kissing-loop reporter [1] [nM] | apparent KD of K4 kissing-loop reporter [2] [nM]
1 | GCGGCCCAGCCGGAUACCAGUGACCCGCUGGGAACCGCGGGCCCAGAGUGAUGUUCGGGACACCCUUGGCAGCCGCCUGGGACGC [#2 Same State - Theophylline B Attempt #17 (HarryS)] | 588 | 126 | 546 | 334 | 193
2 | ACAGUACCGGGAAGGAGCGUGAAUGAGAAUGGAUAUAGUGAUGUUAUGUAUACGAACGAAUCGCAGGUAGGUCGCCCGGAUCCCU [SSArgB.aD] | 563 | 507 | 650 | 722 | 529
3 | UCCUGCAAUCUGCCACGAAAGUGGGUUGAUACCAGAGUCGAAAGACUCCCUUGGCAGCGAGUGAUGUUCGUUGCAGGUAAAUAAA [MatMod 8 - Jieux - Exclusion - Theophylline A] | 194 | 163 | 200 | 180 | 168
4 | AAUAACUUGCAGUGAUGUUGCAAGAAAUCUCAGGAUAUCAGGAAACUGAGAAGGGAGUAUCCUGAGUAAACAUCACAUCUUAGGA [KL-SSFMN-A8] | 322 | 364 | 399 | 376 | 369
5 | CUUGGUCUACGAAGGAGCGCCGUGCAGUGAUGUUGCAGUCAGAUCGAGUGAUGUUUCGGGCGGCAGGUAGGUCGCGUGGCCCUUU [Excusion Arginine B GF 26] | 633 | 455 | 613 | 587 | 579
6 | CCUGCGGCUUCCGGCGGGCCCGAUUUAUAAAAGGAUAUGUGCGUACACAGAAGGUUUAACGAGGGACCGAGAGUGAUGUUCUCCU [theeternabot_sameState_KL_FMN_A_33] | 585 | 174 | 316 | 370 | 418
7 | GCUAUGGUAGGAAGGAGCGCUUGCUCGGUCAUAUGAGUGAUGUUCGAGACUGAGCAUUUAUAGCAGGUAGGUCGCCUACUAUAGC [Arginine B K4 9] | 235 | 206 | 182 | 242 | 177
8 | CAUCACGCAAUCACGGAUGCAAGCAUUGAUACCAGAACCGAUUAUUUCCCUUGGCAGCAACACGGAGUGAUGUUCCUAGCAUAUA [theeternabot_sameState_KL_Theo_A_21] | 71.2 | 122 | 94 | 209 | 75.5
9 | UUUGGAUUGCGCUAAGAGUGCAAGCGCCAACGAGGACCGGUACGGCCGCCACUCGCGGAGGAGUCCAGUGAUGUUGGACGGCCCG [Orbile] | 326 | 222 | 601 | 178 | 183
10 | GCAGUGAUGUUGCGAAUCGGCCAUGAUACAGAGGAUAUCGUGCCUUCGAGAAGGUUGUAUAGAGGAUACGAUAUUAUAAAUGACG [Same State FMN A GF 1] | 353 | 384 | 432 | 436 | 348
11 | AAAUUUAAUAUAUUUAAUUAAUUAUGUGAUACCAGACAUUAAUAAGUCCCUUGGCAGCACAAUGCAGUGAUGUUGCAUAUAAUAA [JR_SSTheophyA_Sub011] | 69.4 | 115 | 73.5 | 84.8 | 65.4
12 | UGACUGGACUGAAGGAGCGCGCGAGACAAAGUCUCGAACUCUUAGUGAUGUUAGGAAAUAACGCAGGUAGGUCGCAGUCUAGUCU | 381 | 247 | 332 | 473 | 408
13 | AGCAUUUUCAGAAGGAGCGUGAAUUAUUCAUAAUUAUAUUAUACGAGUGAUGUUCGUAUUUCACAGGUAGGUCGCUGAUAUAGCA [JR_SSArginiB_Sub002] | 51.4 | 78.3 | 50.1 | 81.6 | 46.6
14 | AGUGAUGUUGUGUUAUCUUAGUGAAGUGAUCGAGGACCGGUACGGCCGCCACUCGAGUGAUGAGUGAGUGAUGUUUGUUUAGGGA [vvbmullin] | 818 | 673 | 1080 | 931 | 561
15 | UCGGCAAAGUCGGCCGCCACUCCGGGCCCUAUAAAUGGGCGCAGUGAUGUUGCGGCUAGGCCUCUGAGGACCGGGACUUUGUAAA [Atordied] | 185 | 63.1 | 54.5 | 61.7 | 219
16 | CGAUAUAAGAAUAUAUAUCUCUAUUCAGAAGGAGCGUGUUUGUACACAGGUAGGUCGCUGAAAUUUAAACUAGUGAUGUUAGACU [JR_SSArginiA_Sub002] | 1170 | 878 | 1210 | 1000 | 890
17 | GCCUGUGCGCGAAGGAGCGCCGUGACAGGUUACUGCCUUGGGCAGUGAUGUUGCUCAAUCUGGCAGGUAGGUCGCGUGCACAGGC | 236 | 187 | 201 | 156 | 192
18 | GGAUAGGAUAGAGGAUAUGGCUUACGCAGAAAUAACUUAUUGUGUAAAUCCAUAGGGAGUGAUGUUCCAGAAGGCUGUCCUAUCG [MatMod 17 - Jieux - Exclusion - FMN B] | 415 | 212 | 251 | 244 | 201
19 | AAACGUUGGUGCGAUACCAGCUUGCGCGGAAAACGCGCUACUGGAGUGAUGUUCCUAAAUAGCCCUUGGCAGCGCACCGACGAAA [MAT - Same State Theophlline B - Mod of Eli - D9] | 193 | 146 | 155 | 107 | 170
20 | UUACUGCCCAGUGAUGUUGGGUAUCGGCGGCGAGGACCGGUACGGCCGCCACUCGGCGCACAGGCGGAGUGAUGUUUCGCUUAAA [Same State Tryptophan A GF 12] | 621 | 539 | 627 | 631 | 186
21 | GGUUGAAGCACCCGGAGUGAUGUUCCGGAUACCAGCAAACCAACUUGCCCUUGGCAGCCGUAUAGCGUCCGGUGGGCCGAGCAUA [Beisadi] | 101 | 90.3 | 97 | 99.3 | 90
22 | GCGCAUGUUAAAGGAUAUAGCAGGUGAUACAAGAAAGUGAGUGAUGUUUAUGUAGAUGAUGAUAUGUUAGAAGGUUAACAAGCGC [abcdefghijklmnop] | 693 | 639 | 842 | 788 | 600

Row | Sequence | apparent KD of K4 kissing-loop reporter (input ligand: FMN 200 uM) [nM] | apparent KD of K4 kissing-loop reporter (input ligand: arginine 13.2 mM) [nM] | apparent KD of K4 kissing-loop reporter (input ligand: none) [nM] | apparent KD of K4 kissing-loop reporter [1] [nM] | apparent KD of K4 kissing-loop reporter [2] [nM]
23 | UGACUACAAAAGGAAUAAUCCUAGUGAUGUUAGGAUAUGCUGAUAAGCAGAAGGAACGGAGAUCGAAAGAUCUCAAAUGUAGUCU [whbob_Ex_FMNA__2th191] | 153 | 89.8 | 82.9 | 112 | 86
24 | GAUUUAGAGGCGGCCGCCACUAGUGAUGUUAGUGAUGUUUGAUAGGGAAUAUAUCAGCGAGUAGAUAGGACCGGGCCAGAUGGAG [gtggbmullin] | 248 | 183 | 203 | 189 | 167
25 | GCCGUAGAUUGAAGGAGCGGCUUCAUCAAAUCUCUUGCCCGCACCAGUGAUGUUGGUGUUAGCCAGGUAGGUCGCAAUCUACGGC | 577 | 376 | 583 | 493 | 465
26 | GUCUGCGUCUCGGCCGCCACUCACUAGUGAUGUUAGUAAGGAGCGACUAGCGCAGUCCUGAAGAUGAGGACCGGGAGACGCAGGA [Exclusion Tryptophan B GF5] | 141 | 110 | 119 | 91 | 358
27 | GAGGAUUGAACGGCCGCCACUGCGCGCAGCUGCAAUCGAGUGAUGUUCCAUCAGUUGUCCAGUUCCAGGACCGGGUUCCGAUGCC [theeternabot_exclusion_KL_Trp_B_12] | 499 | 245 | 401 | 535 | 471
28 | GCAAACCUCAGUGAUGUUGAGUAAUCGGAAGGAGCGCGUGAAAACGCAGGUAGGUCGCCGAUACAUGAAGUAUCUUCGUGUUUGC [Arginine A K4 23] | 284 | 365 | 354 | 380 | 274
29 | CCUAUCUCAUACGAUACCAGUCAAUUAAAACGAGUGAUGUUCGAAAAUUUGCCAUAUAAUGACCCUUGGCAGCGUAUGGGAUAGG [Ex Theophylline B K4 7] | 187 | 196 | 194 | 197 | 164
30 | UUUUUGGUUUAGAGUGAUGUUCCUUGUAAUCGAGGACCGGUACGGCCGCCACUCGAUUAGAAAAGAAAAGAAAAGAGUGAUGUUU [BDazzled - #2 SS Tryptophan A] | 347 | 229 | 299 | 248 | 243
31 | AUUCGUUUAUGUGAUACCAGACUUUGCAGUGAUGUUGCAUUAAUUAUUGAUGAUUAGUUUGUCCCUUGGCAGCACUAUUUAUUUA [JR_SSTheophyB_Sub003] | 54.6 | 105 | 63.8 | 104 | 47.7
32 | AUAAUAAAGACGGCCGCCACUGAGAGUAGUGAUGUUACUCUUUUCCUUUAGAAAUAAUAUUUUAUCAGGACCGGGUUUUUUGAAU [JR_Nu_ExcTryptoB_Sub026] | 95.3 | 81.1 | 84.8 | 79.6 | 92
33 | GAUUUAGAGGCGGCCGCCACUAGUGAUGUUAGUGAUGUUUGAUACUGAAUAUAUCUGCGAGUAGAUAGGACCGGGCCAGAUGGAG [plmfmullin] | 225 | 154 | 195 | 179 | 182
34 | UUGGCUGGACGGGAUACCAGCCAAAUCGUGUGCUUGGGAUGUCUAAGAGCCAGUGAUGUUGGCCCUUGGCAGCCCUCCCAGCUUG [Inontixe] | 124 | 88.6 | 97.1 | 134 | 98.4
35 | UACAUAUUAUUAUUUCUACAUUUAUUUAGUCAGGAUAUCGAUUAAACGAGAAGGGACAAUAUCAAGUGAUGUUUGAUAAUUCAAA [JR_SSFMNA_Sub022] | 85.3 | 123 | 81.6 | 118 | 60
36 | CAUACCCAGUGAUGUUGGGUCGGUACCGAUACCAGUCGUACAGCCGACCCUUGGCAGCGGUAGCAUUGCCCGGCGUCGGCUUGUG [theeternabot_exclusion_KL_Theo_A_17] | 767 | 581 | 625 | 445 | 381
37 | UAAUAAAUUCCAGCUAUAUCACUCUUCGAAGGAGCGGACGAAAGUCCAGGUAGGUCGCGAAGAGUGAUGUUCUUUGCGGCGCUGG [Omei KL Arginine A Exc A v5] | 94.1 | 60.8 | 75.4 | 132 | 111
38 | AGAGUUAUGCGAGGAUAUGCAGUUAGUACUCAAAGAGUACUAACGCAGAGUGAUGUUCUGUGAAAUGCAGAAGGUGCAUAACUCA [Omei KL FMN B SS B v5] | 157 | 316 | 330 | 316 | 289
39 | CGAAGAUUCCAUGAUACCAGCCUCGGCCCAUAGAGUGAUGUUCUAGUCGGGUCCGUUCGCGGCCCUUGGCAGCAUUUCACCACGA [theeternabot_sameState_KL_Theo_B_44] | 197 | 172 | 178 | 216 | 159
40 | CGUUUAUAGCAGGAUACCAGUACCCAUAAAGUACGUUAAUAGUAGAGUGAUGUUCUAAAGUACCCUUGGCAGCUUCCCGUGAGUG [ExTheophylB.T] | 88.9 | 129 | 103 | 134 | 67.8
41 | AAAGCAUUGAGAAGGAGCGUGUCGUGGAGUGAUGUUCCAUUGUAGACCUAAGGUCUACAAGCACAGGUAGGUCGCUCAUUGCUAA [JR_Nu_SSArginiB_Sub023] | 169 | 148 | 173 | 138 | 156
42 | AGACUACCACACUGUCAAUAGACAGUGGACUAGGAUAUGCUGAUAAGCAGAAGGAGUGAUGUUCCCAGGUAGUCAAUAAAAUAAU [FmnAX 13 G28+C66] | 215 | 205 | 225 | 322 | 246
43 | CUGCAAAAGUCGGCCGCCACUCCGGGCCCUAUAAAUGGGCGCAGUGAUGUUGCGGCUAGGCCUCUGAGGACCGGGACUUUGUAAC [Aratan] | 190 | 64.7 | 87 | 131 | 218

From the supplement of paper PMC9170038
